# Data taken from patent publication US20200255516A1 (JIANGSU HENGRUI MEDICINE, published 2020).
# T1: Full-length human TIGIT on CHO cells overexpressing TIGIT (human, UniProt Q495A1 22-244)
# T1 construct: also called TIGIT-CHO cells; CHO cells overexpressing human TIGIT
# T1 sequence: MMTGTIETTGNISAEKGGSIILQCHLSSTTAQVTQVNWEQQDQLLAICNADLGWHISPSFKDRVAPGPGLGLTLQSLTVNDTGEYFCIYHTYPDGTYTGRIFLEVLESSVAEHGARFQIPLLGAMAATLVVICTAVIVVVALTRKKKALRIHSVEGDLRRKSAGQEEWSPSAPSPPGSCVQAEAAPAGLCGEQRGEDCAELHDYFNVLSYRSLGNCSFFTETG
# T2: TIGIT fusion protein with Fc or mFc tag (human, UniProt Q495A1 22-141)
# T2 construct: extracellular domain; also called TIGIT-Fc; TIGIT-mFc
# T2 sequence (looked up): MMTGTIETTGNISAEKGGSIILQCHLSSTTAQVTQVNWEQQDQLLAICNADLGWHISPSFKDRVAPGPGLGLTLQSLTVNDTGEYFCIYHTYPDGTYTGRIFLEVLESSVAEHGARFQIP
# T3: human TIGIT (Sinobiological Co., Ltd., Cat. 10917-H08-H) (human, UniProt Q495A1 22-141)
# T3 construct: also called huTIGIT; TIGIT-His
# T3 sequence (looked up): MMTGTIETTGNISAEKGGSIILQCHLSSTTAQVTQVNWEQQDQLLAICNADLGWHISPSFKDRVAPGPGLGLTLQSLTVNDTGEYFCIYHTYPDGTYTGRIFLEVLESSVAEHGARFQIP
# T4: human TIGIT on SEB-activated human PBMC (human, UniProt Q495A1)
# T4 construct: native, on the cell surface
# T4 sequence (receptor chain, looked up): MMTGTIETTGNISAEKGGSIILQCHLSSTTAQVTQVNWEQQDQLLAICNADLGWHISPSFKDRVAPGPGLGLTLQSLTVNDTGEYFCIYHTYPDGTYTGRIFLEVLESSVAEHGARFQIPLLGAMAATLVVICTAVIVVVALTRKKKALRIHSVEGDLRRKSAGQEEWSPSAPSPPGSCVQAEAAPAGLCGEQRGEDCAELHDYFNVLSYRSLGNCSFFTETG
# B1: 10A7 hIgG4 (antibody, V domains shown)
# VH: EVQLVESGGGLTQPGKSLKLSCEASGFTFSSFTMHWVRQSPGKGLEWVAFIRSGSGIVFYADAVRGRFTISRDNAKNLLFLQMNDLKSEDTAMYYCARRPLGHNTFDSWGQGTLVTVSS
# VL: DIVMTQSPSSLAVSPGEKVTMTCKSSQSLYYSGVKENLLAWYQQKPGQSPKLLIYYASIRFTGVPDRFTGSGSGTDYTLTITSVQAEDMGQYFCQQGINNPLTFGDGTKLEIKR
# B2: ch1711 (antibody, V domains shown)
# VH: QVQLQQSGTELVRPGTSVKMSCKASGYTFTNYWIGWAKQRPGHGLEWIGDIYPGGAYTNYNEKFKDKATLTADKSSSTAYMQFSSLTSEDSAIYYCTRGDYYDSSGRAMDYWGQGTSVTVSS
# VL: DIVMSQSPSSLAVSVGEKVSMSCKSSQSLLYSRNQMNYLAWYQQKPGQSPKLLIYWTSTRESGVPDRFTGSGSGTDFTLTISSVKAEDLAVYYCQQYYSYPYTFGGGTKLEIK
# notes: also called chimeric antibody corresponding to m1711
# B3: 22G2-H3Q (antibody, human IgG4 S228P, kappa, V domains shown)
# VH: QVQLQESGPGLVKPSETLSLTCTVSGGSVSSGIYYWSWIRQPPGKGLEWIGYIYYSGSTNYNPSLKSRVTISVDTSKNQFSLKLSSVTAADTAVYYCARDYYVSGNYYNVDYYFFGVDVWGQGTTVTVSS
# VL: EIVLTQSPATLSLSPGERATLSCRASQSVSSYLAWYQQKPGQAPRLLIYDASNRATGIPARFSGSGSGTDFTLTISSLEPEDFAVYYCQQRSNWPPLFTFGPGTKVDIKR
# B4: h1711-01 (antibody, V domains shown)
# VH: EVQLVQSGAEVKKPGSSVKVSCKASGGTFSNYWIGWVRQAPGQGLEWMGDIYPGGAYTNYNEKFKDRVTITADKSTSTAYMELSSLRSEDTAVYYCARGDYYDSSGRAMDYWGQGTLVTVSS
# VL: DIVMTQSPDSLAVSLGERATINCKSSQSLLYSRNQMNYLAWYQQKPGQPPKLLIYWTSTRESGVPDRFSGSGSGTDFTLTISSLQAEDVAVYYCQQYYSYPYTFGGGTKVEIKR
# B5: h1711-02 (antibody, human IgG4 S228P, kappa, V domains shown)
# VH: EVQLVQSGAEVKKPGSSVKVSCKASGGTFSNYWIGWVRQAPGQGLEWIGDIYPGGAYTNYNEKFKDRVTITADKSTSTAYMELSSLRSEDTAVYYCARGDYYDSSGRAMDYWGQGTLVTVSS
# VL: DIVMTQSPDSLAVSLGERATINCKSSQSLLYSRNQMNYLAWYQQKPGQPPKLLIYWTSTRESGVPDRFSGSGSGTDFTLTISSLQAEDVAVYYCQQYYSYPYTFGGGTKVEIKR
# B6: h1711-03 (antibody, human IgG4 S228P, kappa, V domains shown)
# VH: EVQLVQSGAEVKKPGSSVKVSCKASGYTFSNYWIGWVRQAPGQGLEWIGDIYPGGAYTNYNEKFKDRVTITADKSTSTAYMELSSLRSEDTAVYYCARGDYYDSSGRAMDYWGQGTLVTVSS
# VL: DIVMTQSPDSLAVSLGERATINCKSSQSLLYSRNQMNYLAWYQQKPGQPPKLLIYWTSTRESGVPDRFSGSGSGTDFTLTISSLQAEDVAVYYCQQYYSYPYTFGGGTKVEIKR
# B7: h1707-02 (antibody, human IgG4 S228P, kappa, V domains shown)
# VH: EVQLVESGGGLVQPGGSLRLSCAASGFTFSDYHMYWVRQAPGKGLEWVAYISKGGISTYYPDTVKGRFTISRDNAKNSLYLQMSRLRAEDTAVYYCARQSSYDFAMDYWGRGTLVTVSS
# VL: DIQMTQSPSFLSASVGDRVTITCKASQDVGTSVAWYQQKPGKAPKLLIYWASARHTGVPSRFSGSGSGTDFTLTISSLQPEDFATYYCQQYSSYPLTFGQGTKLEIKR
# notes: also called humanized TIGIT antibody h1707-02
# B8: h1708-05 (antibody, human IgG4 S228P, kappa, V domains shown)
# VH: EVQLVQSGAEVKKPGASVKVSCKASGYTFTNYWMHWVRQAPGQGLEWMGRIDPDSTGSKYNEKFKTRVTMTVDTSTSTVYMELSSLRSEDTAVYYCAREGAYGYYFDYWGQGTLVTVSS
# VL: DIQMTQSPSSLSASVGDRVTITCRASENIYSYLAWYQQKPGKSPKLLIYNARTLAEGVPSRFSGSGSGTDFTLTISSLQPEDFATYYCQYHSGSPLPFGGGTKVEIKR
# notes: also called humanized TIGIT antibody h1708-05
# B9: h1708-03 (antibody, human IgG4 S228P, kappa, V domains shown)
# VH: EVQLVQSGAEVKKPGASVKVSCKASGYTFTNYWMHWVRQAPGQGLEWIGRIDPDSTGSKYNEKFKTRVTMTVDTSTSTAYMELSSLRSEDTAVYYCAREGAYGYYFDYWGQGTLVTVSS
# VL: DIQMTQSPSSLSASVGDRVTITCRASENIYSYLAWYQQKPGKAPKLLIYNARTLAEGVPSRFSGSGSGTDFTLTISSLQPEDFATYYCQYHSGSPLPFGGGTKVEIKR
# notes: also called humanized TIGIT antibody h1708-03
# B10: h1708-06 (antibody, human IgG4 S228P, kappa, V domains shown)
# VH: EVQLVQSGAEVKKPGASVKVSCKASGYTFTNYWMHWVRQAPGQGLEWIGRIDPDSTGSKYNEKFKTRVTMTVDTSTSTAYMELSSLRSEDTAVYYCAREGAYGYYFDYWGQGTLVTVSS
# VL: DIQMTQSPSSLSASVGDRVTITCRASENIYSYLAWYQQKPGKSPKLLIYNARTLAEGVPSRFSGSGSGTDFTLTISSLQPEDFATYYCQYHSGSPLPFGGGTKVEIKR
# notes: also called humanized TIGIT antibody h1708-06
# B11: h1708-04 (antibody, human IgG4 S228P, kappa, V domains shown)
# VH: EVQLVQSGAEVKKPGASVKVSCKASGYTFTNYWMHWVRQAPGQGLEWMGRIDPDSTGSKYNEKFKTRVTMTRDTSTSTVYMELSSLRSEDTAVYYCAREGAYGYYFDYWGQGTLVTVSS
# VL: DIQMTQSPSSLSASVGDRVTITCRASENIYSYLAWYQQKPGKSPKLLIYNARTLAEGVPSRFSGSGSGTDFTLTISSLQPEDFATYYCQYHSGSPLPFGGGTKVEIKR
# notes: also called humanized TIGIT antibody h1708-04
# B12: h1708-02 (antibody, human IgG4 S228P, kappa, V domains shown)
# VH: EVQLVQSGAEVKKPGASVKVSCKASGYTFTNYWMHWVRQAPGQGLEWMGRIDPDSTGSKYNEKFKTRVTMTVDTSTSTVYMELSSLRSEDTAVYYCAREGAYGYYFDYWGQGTLVTVSS
# VL: DIQMTQSPSSLSASVGDRVTITCRASENIYSYLAWYQQKPGKAPKLLIYNARTLAEGVPSRFSGSGSGTDFTLTISSLQPEDFATYYCQYHSGSPLPFGGGTKVEIKR
# notes: also called humanized TIGIT antibody h1708-02
# B13: h1708-01 (antibody, human IgG4 S228P, kappa, V domains shown)
# VH: EVQLVQSGAEVKKPGASVKVSCKASGYTFTNYWMHWVRQAPGQGLEWMGRIDPDSTGSKYNEKFKTRVTMTRDTSTSTVYMELSSLRSEDTAVYYCAREGAYGYYFDYWGQGTLVTVSS
# VL: DIQMTQSPSSLSASVGDRVTITCRASENIYSYLAWYQQKPGKAPKLLIYNARTLAEGVPSRFSGSGSGTDFTLTISSLQPEDFATYYCQYHSGSPLPFGGGTKVEIKR
# notes: also called humanized TIGIT antibody h1708-01
# How the values were obtained:
# [1] = target: T1, Full-length human TIGIT on CHO cells …; assay: cell ELISA on fixed CHO cells overexpressing human TIGIT
# [2] = target: T1, Full-length human TIGIT on CHO cells …; assay: FACS blocking assay on TIGIT-CHO cells; competitor CF633-labeled CD155-Fc at 2 ug/ml
# [3] = target: T2, TIGIT fusion protein with Fc or mFc tag; assay: ELISA: human TIGIT-Fc or TIGIT-mFc captured by coated anti-Fc antibody, HRP secondary antibody, OD450
# [4] = target: T3, human TIGIT (Sinobiological Co., Ltd., …); assay: SPR (Biacore), captured antibody, TIGIT-His as analyte
# [5] = target: T5, cynoTIGIT-mFc (fusion protein of cynoTIGIT extracellular domain and mouse IgG2a Fc fragment) (cynomolgus); assay: SPR (Biacore T200), antibody held by Fc affinity capture, cynoTIGIT-mFc in mobile phase, 1:1 Langmuir fit
# T5 construct: also called monkey TIGIT; cynomolgus TIGIT-mFc fusion protein
# [6] = target: T3, human TIGIT (Sinobiological Co., Ltd., …); assay: SPR (Biacore T200), antibody captured via Protein A, huTIGIT in mobile phase, 1:1 Langmuir fit
# [7] = target: T2, TIGIT fusion protein with Fc or mFc tag; assay: blocking cell ELISA: TIGIT-hFc or TIGIT-mFc (0.2 ug/ml) pre-mixed with the antibody, added to fixed CHO cells overexpressing CD155 (blocked ligand), OD450
# [8] = target: T2, TIGIT fusion protein with Fc or mFc tag; assay: FACS blocking assay: TIGIT-mFc pre-incubated with the antibody, added to CHO cells overexpressing CD112 (blocked ligand), PE anti-mouse IgG, MFI
# [9] = target: T2, TIGIT fusion protein with Fc or mFc tag; assay: HTRF blocking assay: TIGIT-Fc or TIGIT-mFc with biotinylated CD155 as the blocked ligand, ratio 665/620
# [10] = target: T5, cynoTIGIT-mFc (fusion protein of …); assay: ELISA: cynomolgus TIGIT-Fc or TIGIT-mFc captured by coated anti-Fc antibody, HRP secondary antibody, OD450
# [11] = target: T4, human TIGIT on SEB-activated human PBMC; assay: flow cytometry on SEB-activated human PBMC, PE anti-human IgG, MFI
# [12] = target: T2, TIGIT fusion protein with Fc or mFc tag; assay: HTRF blocking assay: TIGIT-Fc or TIGIT-mFc with biotinylated CD155 as the blocked ligand, ratio 665/620; remark: listed apart in the source
# T5 sequence (chain, as listed by the source limits assumed): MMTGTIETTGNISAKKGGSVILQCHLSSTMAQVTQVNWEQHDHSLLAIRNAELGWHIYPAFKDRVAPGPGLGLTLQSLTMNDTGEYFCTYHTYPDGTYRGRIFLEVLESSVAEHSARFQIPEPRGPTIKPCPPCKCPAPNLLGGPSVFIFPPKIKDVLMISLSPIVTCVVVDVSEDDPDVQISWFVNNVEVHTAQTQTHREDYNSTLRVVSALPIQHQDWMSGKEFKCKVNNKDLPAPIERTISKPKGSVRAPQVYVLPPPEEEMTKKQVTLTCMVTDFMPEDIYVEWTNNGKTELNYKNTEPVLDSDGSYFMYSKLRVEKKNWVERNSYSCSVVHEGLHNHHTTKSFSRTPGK
binder,measurement,setting,value
B1,EC50,[1],109 pM
same,IC50,[2],678 pM
same,EC50 (read off the curve),[3],~200 pM
B2,Kd,[4],249 pM
same,koff,[4],0.000455 s⁻¹
same,kon,[4],1.83e+06 M⁻¹ s⁻¹
B3,Kd,[5],166 pM
same,koff,[5],0.000404 s⁻¹
same,kon,[5],2.44e+06 M⁻¹ s⁻¹
same,Kd,[6],709 pM
same,koff,[6],0.000379 s⁻¹
same,kon,[6],535000 M⁻¹ s⁻¹
same,IC50 (read off the curve),[7],~1000 pM
same,IC50 (read off the curve),[8],~5000 pM
B4,Kd,[4],1490 pM
same,koff,[4],0.00209 s⁻¹
same,kon,[4],1.4e+06 M⁻¹ s⁻¹
B5,Kd,[4],1240 pM
same,koff,[4],0.00171 s⁻¹
same,kon,[4],1.38e+06 M⁻¹ s⁻¹
B6,Kd,[4],556 pM
same,koff,[4],0.000723 s⁻¹
same,kon,[4],1.3e+06 M⁻¹ s⁻¹
B7,IC50 (read off the curve),[9],~3000 pM
same,Kd,[6],108 pM
same,koff,[6],0.000188 s⁻¹
same,kon,[6],1.74e+06 M⁻¹ s⁻¹
same,binding result,[10],binds
same,EC50 (read off the curve),[11],~300 pM
same,EC50,[1],87.2 pM
same,IC50 (read off the curve),[7],~1000 pM
same,IC50 (read off the curve),[8],~5000 pM
same,IC50,[2],482 pM
same,EC50 (read off the curve),[3],~100 pM
B8,IC50 (read off the curve),[12],~1000 pM
B9,IC50 (read off the curve),[12],~1000 pM
B10,IC50 (read off the curve),[12],~1000 pM
B11,Kd,[5],285 pM
same,koff,[5],0.000352 s⁻¹
same,kon,[5],1.24e+06 M⁻¹ s⁻¹
same,IC50 (read off the curve),[9],~2000 pM
same,Kd,[6],104 pM
same,koff,[6],0.000183 s⁻¹
same,kon,[6],1.75e+06 M⁻¹ s⁻¹
same,IC50 (read off the curve),[12],~1000 pM
same,EC50 (read off the curve),[11],~300 pM
same,EC50,[1],84.8 pM
same,IC50 (read off the curve),[7],~1000 pM
same,IC50 (read off the curve),[8],~5000 pM
same,IC50,[2],499 pM
same,EC50 (read off the curve),[3],~100 pM
B12,IC50 (read off the curve),[12],~1000 pM
B13,IC50 (read off the curve),[12],~1000 pM
